Target: human MC4 receptor (human), P32245
Experiment: competition
Conditions: modification not given

Sequence of human MC4 receptor (human), P32245 (P32245 whole entry): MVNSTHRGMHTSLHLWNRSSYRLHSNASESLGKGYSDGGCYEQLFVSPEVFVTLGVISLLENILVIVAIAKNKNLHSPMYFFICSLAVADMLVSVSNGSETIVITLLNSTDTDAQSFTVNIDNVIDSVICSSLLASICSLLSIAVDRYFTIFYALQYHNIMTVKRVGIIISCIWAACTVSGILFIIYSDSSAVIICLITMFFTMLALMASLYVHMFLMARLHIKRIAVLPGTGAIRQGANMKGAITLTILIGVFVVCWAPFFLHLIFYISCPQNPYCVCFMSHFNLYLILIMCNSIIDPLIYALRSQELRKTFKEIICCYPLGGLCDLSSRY

Ki: 0.41 nM
B1: Compound 77 (peptide)
chain: YRCEHFRWC
